Measurements as given in paper PMC9547003.

Biological target: bacteriophage T7 endonuclease I (C113S, S29C; called wild type in the paper), Cy3-labelled (bacteriophage T7) (UniProt P00641)
Test: two-step photobleaching of single fluorescent molecules (confocal microscopy with optical tweezers); Cy3-labelled endonuclease I (one dye on each monomer) diffusing on force-stretched dsDNA held between optically trapped beads; 1 nM protein, 25 mM Tris-HCl pH 7.5, 50 mM NaCl, 0.1% BSA, 1 mM CaCl2 or MgCl2

## bacteriophage T7 endonuclease I (C113S, S29C; called wild type in the paper), Cy3-labelled (from UniProt P00641 1-149) (enzyme)
  stoichiometry N: 2
